# Test results from US20010041670A1, “Thrombospondin-binding region of histidine-rich glycoprotein and method of use” (priority 1999, published 2001).
# Entries after “also recorded” stand apart in the source; their conditions may differ.
# Columns and labels:
# [1] = biological target: T1, 125I-TSP-1 binding to HRGP (Homo sapiens, UniProt P07996); assay: Solid phase binding assay, competition with CD36 fusion proteins; conditions: increasing concentrations of fusion protein
# T1 construct: TSP-1 was purified from human platelet releasate; from tissue; host or cells: TSP-1 from human platelet releasate; HRGP from human plasma
# Method: Solid phase binding assays were performed as described (18). Briefly, HRGP in carbonate buffer was immobilized on 96-well strips (Immulon-4 Remove-a-well, Dynatech Laboratories Inc., Burlington, Mass., USA) overnight at 4° C. After blocking with 1% BSA, ^125I-TSP-1 was incubated in the presence of varying concentrations of CD36-FP in triplicate, and bound radioactivity was quantified on a gamma counter. Non-specific binding was determined by carrying out binding in the presence of excess unlabeled ligand.
# TSP-1 binding to HRGP: competition with CD36.
# [2] = test system: Human dermal microvascular EC (HMVEC); assay: Tube formation assay on Matrigel; assay type: cell-based
# Method: Tube Formation Assay. Early passage (P2 or P3) HMVEC in 0.2% MVGS were grown on 150 μl of Matrigel (Becton Dickinson, Bedford, Mass., USA) at 3×10^4 cells per well of 48-well plates. Reagents were added and cells were incubated at 5% CO2, 37° C. for 24 hours then photographed. Images were scanned and number of branched structures was counted using Scion Image software (Frederick, Md., USA).
# HRGP inhibits the anti-angiogenic effect of TSP-1 in vitro. Microvascular EC were grown on Matrigel under low serum concentrations (0.2%) in the presence of bFGF (2 ng/ml), conditions which are known to induce tube formation. […] The anti-angiogenic activity of TSP-1 was abolished by the addition of HRGP (15 nM), which restored the ability of the EC to form tubular structures. (c).
# [3] = biological target: TSP-1 (Homo sapiens, UniProt P07996); conditions: saturable, reversible binding; read-out: affinity of HRGP binding to TSP-1; cited from earlier work
# [4] = test system: Human dermal microvascular EC (HMVEC); assay: Endothelial cell chemotaxis assay (modified Boyden chamber); assay type: cell-based
# Method: Endothelial Cell (EC) chemotaxis assays were performed as described using a modified Boyden chamber with 8 μm gelatin-coated membranes (22). Briefly, confluent flasks of HMVEC were grown in 0.1% MVGS overnight and plated at 3×10^4 cells per well on a gelatinized porous membrane (Osmonics, Minnetonka, Minn., USA). Reagents were added to wells and cells were allowed to migrate at 5% CO2, 37° C. for 4 hours. Membranes were stained and the number of cells migrating was counted. Results were expressed as the percentage of maximum cells migrating towards bFGF (38-113 cells/10 high power fields) minus the number of cells migrating in the absence of bFGF (4-13cells/10 hpf).
# HRGP inhibits the anti-chemotactic effect of TSP-1. Because the type I repeat also mediates the interaction of TSP-1 with HRGP, we studied the effect of HRGP on angiogenesis. EC migration towards bFGF was measured using a modified Boyden chamber with an 8 μm gelatin-coated membrane in the presence and absence of TSP-1 (2 nM) and increasing concentrations of HRGP (0-100 nM). Data from 3 separate experiments are expressed as a percentage of migration in the presence of bFGF alone. We measured migration of CD36-expressing microvascular EC towards bFGF. The addition of TSP-1 inhibited bFGF-induced migration of EC (approx. 30%±3% of control 100% value without added TSP-1). […]
# [5] = test system: wild type C57BL/6 mice; assay: In vivo corneal angiogenesis assay, wild type mice
# Method: (§1) FIG. 3. HRGP abrogates the effect of endogenous TSP in the corneal angiogenesis assay. Pellets containing bFGF at various doses with and without HRGP (50 ng) were implanted into the corneas of wild type C57BL/6 (closed symbols) or CD 36 null mice (open symbols), and area of neovascularization was measured after five days. HRGP (--●--) augmented the dose-dependent effect of bFGF (—▪—) in the wild type mice (p=0.0004 by ANOVA). In CD36 null mice, there was an enhanced dose response to bFGF (—□—) (p=0.01), but no effect seen with the addition of HRGP (--◯--). Results represent mean±SE of>6 replicates.
# (§2) In vivo corneal angiogenesis assays. Pellets composed of hydron (Hydro Med Sciences, Cranbury, N.J.) and sucralfate (Teva Pharmaceuticals, North Wales, Pa.) were mixed with proteins or growth factors, and were prepared and implanted into the comeas of C57B1/6 mice as described (38). After 5 days, eyes were viewed under a dissecting microscope and photographed with a Sony DKC-1000 digital camera. The area of neovascularization was calculated by measuring vessel length from limbus towards the pellet and number of clock hours of vascularization as described (39, 40). Studies were approved by the Institutional Animal Use Committee.
# In a second type of in vivo experiment, hydron/sucralfate pellets containing bFGF, TSP-1, and/or HRGP were implanted in the corneas of C57B1/6 mice. […] Similar results were obtained when HRGP was added in a separate pellet from bFGF and TSP-1.
# In fact, the dose response curve of bFGF in wild type mice in the presence of HRGP was similar to that seen with bFGF alone in the CD36 null mice. […] The resulting pellet was removed after 10 days, processed and stained for histologic examination and blood vessel counts. TSP-1 inhibited bFGF-induced blood vessel formation (14±8% of blood vessels/mm^2 seen with bFGF), and that HRGP inhibited the anti-angiogenic effect of TSP-1 (80±13%).
# [6] = test system: C57B1/6 mice; assay: In vivo subcutaneous Matrigel plug assay
# Method: In vivo subcutaneous Matrigel plug assays were performed as described (23). Briefly, 500 μl of Matrigel mixed with proteins or growth factors was injected subcutaneously near the abdominal midline of C57B1/6 mice. Gels were removed after 10 days, fixed in 1% paraformaldehyde, embedded in paraffin, sectioned, and stained with hematoxylin and eosin. Immunohistochemistry was performed on unstained sections using an anti-human von Willebrand factor (vWF) IgG (Dako, Glostrup, Denmark) or isotype-matched control (Sigma) and a biotin-streptavidin-peroxidase antibody and development system (Vector Laboratories, Burlingame, Calif.) as described (24) and counterstained with Mayer's hematoxylin (ImmunoGenex, San Ramon, Calif., USA). After scanning, the degree of angiogenesis was determined by counts of vWF-positive blood vessels using Scion Image. For breast tissue, frozen sections of freshly obtained human breast carcinoma were incubated with rabbit antibody to HRGP or CSVTCG or murine monoclonal antibody to TSP, or isotype-matched controls (Sigma), and developed as above. These studies were approved by the Institutional Animal Use Committee.
# Matrigel mixed was injected subcutaneously into the midline of mice and resulting plugs were harvested after 10 days, fixed, and paraffin embedded, sectioned, stained with. hematoxylin and eosin, and photographed at 200× magnification. […]
# [7] = test system: CD36 null mice; assay: In vivo corneal angiogenesis assay, CD36 null mice
# Method: as §1, §2
# In fact, the dose response curve of bFGF in wild type mice in the presence of HRGP was similar to that seen with bFGF alone in the CD36 null mice. […]
# Chain of TSP-1 (P07996 19-1170): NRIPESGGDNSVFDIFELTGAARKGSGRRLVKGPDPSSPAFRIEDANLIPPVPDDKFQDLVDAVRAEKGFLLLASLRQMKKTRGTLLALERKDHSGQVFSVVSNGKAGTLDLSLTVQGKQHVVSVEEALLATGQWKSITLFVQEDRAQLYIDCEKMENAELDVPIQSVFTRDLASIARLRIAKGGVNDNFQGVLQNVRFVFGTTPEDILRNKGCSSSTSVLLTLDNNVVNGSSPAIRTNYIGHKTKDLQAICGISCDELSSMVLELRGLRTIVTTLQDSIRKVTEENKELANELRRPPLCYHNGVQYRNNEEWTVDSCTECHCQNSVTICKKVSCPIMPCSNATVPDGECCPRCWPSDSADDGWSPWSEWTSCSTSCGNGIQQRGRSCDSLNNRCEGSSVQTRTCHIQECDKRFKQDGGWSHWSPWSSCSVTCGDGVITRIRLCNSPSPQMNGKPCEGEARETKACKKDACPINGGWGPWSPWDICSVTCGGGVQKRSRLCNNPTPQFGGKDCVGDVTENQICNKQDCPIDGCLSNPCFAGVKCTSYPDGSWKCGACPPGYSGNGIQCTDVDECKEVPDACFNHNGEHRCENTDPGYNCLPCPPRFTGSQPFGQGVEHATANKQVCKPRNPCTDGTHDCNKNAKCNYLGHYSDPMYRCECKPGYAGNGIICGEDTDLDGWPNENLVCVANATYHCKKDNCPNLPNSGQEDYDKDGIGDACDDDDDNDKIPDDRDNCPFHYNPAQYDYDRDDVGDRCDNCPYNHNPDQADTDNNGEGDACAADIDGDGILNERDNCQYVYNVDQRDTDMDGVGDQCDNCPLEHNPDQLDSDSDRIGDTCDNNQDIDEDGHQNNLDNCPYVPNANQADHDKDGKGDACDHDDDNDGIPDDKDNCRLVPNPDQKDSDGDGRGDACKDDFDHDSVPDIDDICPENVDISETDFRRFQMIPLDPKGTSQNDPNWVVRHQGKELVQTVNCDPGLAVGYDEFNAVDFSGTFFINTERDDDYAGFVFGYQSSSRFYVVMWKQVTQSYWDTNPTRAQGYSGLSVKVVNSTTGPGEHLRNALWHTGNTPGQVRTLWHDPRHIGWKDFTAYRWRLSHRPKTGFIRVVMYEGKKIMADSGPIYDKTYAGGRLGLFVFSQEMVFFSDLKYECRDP
# T1 sequence (P07996 19-1170): as above
inhibition of 125I-TSP-1 binding to immobilized HRGP [1],Molecule,effect on the anti-angiogenic activity of TSP-1 (tube formation) ([2]; HRGP 15 nM added to TSP-1 2 nM + bFGF 2 ng/ml),"induction of tube formation ([2]; agent alone, low serum, Matrigel)",Kd [3] [nM],"EC migration towards bFGF, percentage of control ([4]; TSP-1 2 nM plus 10 nM HRGP)","EC migration towards bFGF, percentage of control ([4]; TSP-1 2 nM plus 100 nM HRGP)","effect on angiogenic activity (dose response) of bFGF ([5]; HRGP 50 ng, bFGF 2.5 to 10 ng, wild type mice, p=0.0004 by ANOVA)","Area of Neovascularization (mm^2) ± SE ([5]; Wild type mouse, corneal pellet, 5 days) [mm^2]",induction of corneal angiogenesis by agent alone ([5]; pellet without bFGF),"blood vessels/mm^2, % of that seen with bFGF ([6]; HRGP added to bFGF + TSP-1 in Matrigel, 10 days) [%]","angiogenesis in Matrigel plug (histology) ([6]; plugs harvested after 10 days, representative images of 4 experiments)","Area of Neovascularization (mm^2) ± SE ([7]; CD36 −/− mouse, corneal pellet, 5 days) [mm^2]","effect on sensitivity to low concentrations of bFGF ([7]; HRGP 50 ng, CD36 null mice)"
had no effect,"CD36 FP298-439: CD36-GST fusion protein which does not bind TSP-1 (protein, left off: a dimerising Fc or GST) KAFASPVENPDNYCFCTEKIISKNCTSYGVLDISKCKEGRPVYISLPHFLYASPDVSEPIDGLNPNEEEHRTYLDIEPITGFTLQFAKRLQVNLLVKPSEKIQVLKNLKRNYIVPILWLNETGTIGDEKANMFRSQVTGKIN",,,,,,,,,,,,
,"HRGP: Histidine-rich glycoprotein, plasma protein purified from human plasma by lys-plasminogen affinity chromatography (protein) VSPTDCSAVEPEAEKALDLINKRRRDGYLFQLLRIADAHLDRVENTTVYYLVLDVQESDCSVLSRKYWNDCEPPDSRRPSEIVIGQCKVIATRHSHESQDLRVIDFNCTTSSVSSALANTKDSPVLIDFFEDTERYRKQANKALEKYKEENDDFASFRVDRIERVARVRGGEGTGYFVDFSVRNCPRHHFPRHPNVFGFCRADLFYDVEALDLESPKNLVINCEVFDPQEHENINGVPPHLGHPFHWGGHERSSTTKPPFKPHGSRDHHHPHKPHEHGPPPPPDERDHSHGPPLPQGPPPLLPMSCSSCQHATFGTNGAQRHSHNNNSSDLHPHKHHSHEQHPHGHHPHAHHPHEHDTHRQHPHGHHPHGHHPHGHHPHGHHPHGHHPHCHDFQDYGPCDPPPHNQGHCCHGHGPPPGHLRRRGPGKGPRPFHCRQIGSVYRLPPLRKGEVLPLPEANFPSFPLPHHKHPLKPDNQPFPQSVSESCPGKFKSGFPQVSMFFTHTFPK",abolished,did not directly induce tube formation,7,approx. 30%±15%,approx. 75%±15%,significantly increased; also recorded: augmented,0 ± 0,did not induce angiogenesis,80±13,had no effect,0.02 ± 0.004,did not effect sensitivity; also recorded: no effect
